Consider 3 sequences from article PMC6483365.

Data set [1] deals with hemagglutinin on whole virus (Influenza A virus A/Puerto-Rico/8/1934 (H1N1)) (UniProt P03452). Briefly: ELAA.
The target in data set [2] is hemagglutinin on whole virus (Influenza A virus A/Aichi/2/1968 (H3N2)) (UniProt P03437). Briefly: ELAA.
Data set [3] relates to hemagglutinin on whole virus (Influenza A virus A/Primorie/3631/2002 (H9N2)). As to the kind of experiment: ELAA. The following applies: […], pH 7.4), 25 C, […], room temperature, 1 h.
In data set [4] the test system is hemagglutinin on whole virus (Influenza A virus A/tern/South Africa/1/1961 (H5N3)). As to the kind of experiment: ELAA. The following applies: […], pH 7.4), 25 C, […], room temperature, 1 h.
Data set [5] relates to hemagglutinin on whole virus (Influenza A virus A/duck/Primorie/3691/2002 (H12N2)). As to the kind of experiment: ELAA. The settings on record: […], pH 7.4), 25 C, […], room temperature, 1 h.
In data set [6] the target is hemagglutinin on whole virus (Influenza A virus A/New Caledonia/20/1999 (H1N1)) (UniProt Q6WG00). As to the kind of experiment: ELAA. The following applies: […], pH 7.4), 25 C, […], room temperature, 1 h.
The subject of data set [7] is hemagglutinin on whole virus (Influenza A virus A/mallard/Sweden/91/2002 (H7N9)). As to the kind of experiment: ELAA. The following applies: […], pH 7.4), 25 C, […], room temperature, 1 h.
Data set [8] deals with hemagglutinin on whole virus (Influenza A virus A/Vietnam/1203/2004-PR8/CDC-R (H5N1)) (UniProt Q6DQ33). As to the kind of experiment: ELAA. The following applies: […], pH 7.4), 25 C, […], room temperature, 1 h.
Data set [9] has as its system hemagglutinin on whole virus (Influenza A virus A/England/42/1972 (H3N2)). As to the kind of experiment: ELAA. The settings on record: […], pH 7.4), 25 C, […], room temperature, 1 h.
Data set [10] deals with hemagglutinin on whole virus (Influenza A virus A/Mississippi/1/1985 (H3N2)). As to the kind of experiment: SERS sandwich. The settings on record: […], pH 7.4), 25 C, […], room temperature, 1 h.
Data set [11] relates to hemagglutinin on whole virus (Influenza A virus A/Buryatia/652/1988 (H3N8)). Briefly: SERS sandwich. The settings on record: […], pH 7.4), 25 C, […], room temperature, 1 h.
Data set [12] addresses hemagglutinin on whole virus (Influenza A virus A/Aichi/2/1968 (H3N2)) (UniProt P03437). Briefly: SERS sandwich.
In data set [13] the test system is hemagglutinin on whole virus (Influenza A virus A/tern/South Africa/1/1961 (H5N3)). Briefly: SERS sandwich. The following applies: […], pH 7.4), 25 C, […], room temperature, 1 h.
The test system of data set [14] is hemagglutinin on whole virus (Influenza A virus A/duck/Moscow/4182/2010 (H5N3)). As to the kind of experiment: SERS sandwich. The following applies: […], pH 7.4), 25 C, […], room temperature, 1 h.
In data set [15] the test system is hemagglutinin on whole virus (Influenza A virus A/duck/Primorie/3691/2002 (H12N2)). Briefly: SERS sandwich. The settings on record: […], pH 7.4), 25 C, […], room temperature, 1 h.
Data set [16] has as its target hemagglutinin on whole virus (Influenza A virus A/New Caledonia/20/1999 (H1N1)) (UniProt Q6WG00). As to the kind of experiment: SERS sandwich. The settings on record: […], pH 7.4), 25 C, […], room temperature, 1 h.
The target of data set [17] is hemagglutinin on whole virus (Influenza A virus A/Vietnam/1203/2004-PR8/CDC-R (H5N1)) (UniProt Q6DQ33). Briefly: SERS sandwich. The settings on record: […], pH 7.4), 25 C, […], room temperature, 1 h.
Data set [18] relates to hemagglutinin on whole virus (Influenza A virus A/Buryatia/2408/2001 (H4N6)). As to the kind of experiment: SERS sandwich. The following applies: […], pH 7.4), 25 C, […], room temperature, 1 h.
Data set [19] concerns hemagglutinin on whole virus (Influenza A virus A/Primorie/3/1982 (H9N2)). As to the kind of experiment: SERS sandwich. The settings on record: […], pH 7.4), 25 C, […], room temperature, 1 h.
Data set [20] relates to hemagglutinin on whole virus (Influenza A virus A/England/42/1972 (H3N2)). Briefly: SERS sandwich. The settings on record: […], pH 7.4), 25 C, […], room temperature, 1 h.
Data set [21] concerns recombinant hemagglutinin H7 (Influenza A virus (H7 subtype, strain not stated)). Briefly: SPR. The settings on record: […], pH 7.4), 25 C, room temperature, 1 h.
Data set [22] has as its system recombinant hemagglutinin H5 (Influenza A virus (H5 subtype, strain not stated)). Briefly: SPR. The settings on record: […], pH 7.4), 25 C, room temperature, 1 h.
Data set [23] has as its system recombinant hemagglutinin H3 (Influenza A virus (H3 subtype, strain not stated)). As to the kind of experiment: SPR. The following applies: […], pH 7.4), 25 C, room temperature, 1 h.
Data set [24] concerns recombinant hemagglutinin H1 (Influenza A virus (H1 subtype, strain not stated)). Briefly: SPR. The following applies: […], pH 7.4), 25 C, room temperature, 1 h.
For data set [25], the system named is recombinant hemagglutinin H9 (Influenza A virus (H9 subtype, strain not stated)). Briefly: SPR. The settings on record: […], pH 7.4), 25 C, room temperature, 1 h.

hemagglutinin on whole virus (Influenza A virus A/Puerto-Rico/8/1934 (H1N1)), sequence (P03452 whole entry): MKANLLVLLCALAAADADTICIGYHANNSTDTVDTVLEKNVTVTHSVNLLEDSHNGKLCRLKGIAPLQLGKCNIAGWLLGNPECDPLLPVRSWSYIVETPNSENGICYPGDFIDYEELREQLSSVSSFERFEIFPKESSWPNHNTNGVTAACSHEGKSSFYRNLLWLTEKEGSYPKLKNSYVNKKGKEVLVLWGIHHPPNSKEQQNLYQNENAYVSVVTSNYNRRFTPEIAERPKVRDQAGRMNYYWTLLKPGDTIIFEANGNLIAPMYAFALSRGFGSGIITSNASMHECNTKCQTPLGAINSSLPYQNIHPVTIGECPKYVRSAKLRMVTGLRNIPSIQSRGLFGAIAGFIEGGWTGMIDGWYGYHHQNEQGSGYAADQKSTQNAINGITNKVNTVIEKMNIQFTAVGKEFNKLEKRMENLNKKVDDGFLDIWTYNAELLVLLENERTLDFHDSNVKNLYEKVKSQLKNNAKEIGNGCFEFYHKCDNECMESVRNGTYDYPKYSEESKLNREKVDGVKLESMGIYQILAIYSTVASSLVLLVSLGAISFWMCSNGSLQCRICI

Take “TTGGGGTTATTTTGGGAGGGCGGGGGTT [RHA0385-Biotin]”: the equilibrium dissociation constant (Kd) in data set [1] was 13 nM; in data set [2], 17 nM; in data set [3], 16 nM; in data set [4], 200 nM; in [5], over 200 nM; in [6], 42 nM. Besides, the dissociation constant Kd in data set [7] amounted to 13 nM; in [8] it was 34 nM; in data set [9], 40 nM.
Turning to “TTGGGGTTATTTTGGGAGGGCGGGGGTT [RHA0385-Cy3]”, the binding signal (relative SERS signal) in [10] is 4.3; in [11] it was 2.4; in data set [12], 4.1; in [13], 6.5; in data set [14] it was 2.9; in data set [15], 5. Also, the binding signal (relative SERS signal) in data set [16] is 1.7; in data set [17], 4.8; in [18], 6.9; in data set [19] it was 2.4; in data set [20], 3.
For TTGGGGTTATTTTGGGAGGGCGGGGGTT [RHA0385], the equilibrium dissociation constant (Kd) was 12 nM in data set [21]; 13 nM in data set [22]; 12 nM in data set [23]; 7 nM in data set [24]; 14 nM in data set [25].
